Test results from publication PMC4917648, “praja2 regulates KSR1 stability and mitogenic signaling” (Cell Death & Disease, 2016).

Target: T1, kinase suppressor of Ras 1 (KSR1), endogenous (human (endogenous in HEK293), UniProt Q8IVT5 1-923)
T1 sequence (looked up): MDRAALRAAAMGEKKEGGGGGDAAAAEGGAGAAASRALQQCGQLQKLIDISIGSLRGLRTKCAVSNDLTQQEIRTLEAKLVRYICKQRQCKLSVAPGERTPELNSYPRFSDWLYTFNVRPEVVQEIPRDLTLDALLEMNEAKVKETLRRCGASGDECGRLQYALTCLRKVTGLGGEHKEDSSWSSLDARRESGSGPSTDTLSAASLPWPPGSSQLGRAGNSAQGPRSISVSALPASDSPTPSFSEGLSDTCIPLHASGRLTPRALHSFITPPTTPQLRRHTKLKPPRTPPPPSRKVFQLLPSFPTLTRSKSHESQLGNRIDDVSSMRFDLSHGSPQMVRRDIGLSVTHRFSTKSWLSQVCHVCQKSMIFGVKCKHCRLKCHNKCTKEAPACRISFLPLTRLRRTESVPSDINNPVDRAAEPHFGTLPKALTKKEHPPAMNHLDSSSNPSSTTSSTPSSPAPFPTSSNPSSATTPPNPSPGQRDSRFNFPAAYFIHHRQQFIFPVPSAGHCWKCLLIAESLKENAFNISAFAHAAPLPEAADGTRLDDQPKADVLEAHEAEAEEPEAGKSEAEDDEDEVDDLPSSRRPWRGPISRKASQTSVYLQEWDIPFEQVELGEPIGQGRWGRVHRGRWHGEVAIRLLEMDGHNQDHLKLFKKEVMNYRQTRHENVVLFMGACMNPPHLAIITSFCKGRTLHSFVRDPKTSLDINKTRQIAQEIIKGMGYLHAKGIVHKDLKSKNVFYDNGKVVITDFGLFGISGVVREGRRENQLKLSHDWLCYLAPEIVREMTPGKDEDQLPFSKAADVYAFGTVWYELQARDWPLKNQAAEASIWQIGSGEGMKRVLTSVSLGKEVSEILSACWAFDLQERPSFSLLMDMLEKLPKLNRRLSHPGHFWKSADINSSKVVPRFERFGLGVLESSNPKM
Experiment: cell-based or functional assay

B1: praja2 (endogenous) (natural protein, human (endogenous in HEK293), UniProt O43164 1-708, looked up)
chain: MSQYTEKEPAAMDQESGKAVWPKPAGGYQTITGRRYGRRHAYVSFKPCMTRHERSLGRAGDDYEVLELDDVPKENSSGSSPLDQVDSSLPSEPIFEKSETEIPTCGSALNQTTESSQSFVAVHHSEEGRDTLGSSTNLHNHSEGEYIPGACSASSVQNGIALVHTDSYDPDGKHGEDNDHLQLSAEVVEGSRYQESLGNTVFELENREAEAYTGLSPPVPSFNCEVRDEFEELDSVPLVKSSAGDTEFVHQNSQEIQRSSQDEMVSTKQQNNTSQERQTEHSPEDAACGPGHICSEQNTNDREKNHGSSPEQVVRPKVRKLISSSQVDQETGFNRHEAKQRSVQRWREALEVEESGSDDLLIKCEEYDGEHDCMFLDPPYSRVITQRETENNQMTSESGATAGRQEVDNTFWNGCGDYYQLYDKDEDSSECSDGEWSASLPHRFSGTEKDQSSSDESWETLPGKDENEPELQSDSSGPEEENQELSLQEGEQTSLEEGEIPWLQYNEVNESSSDEGNEPANEFAQPAFMLDGNNNLEDDSSVSEDLDVDWSLFDGFADGLGVAEAISYVDPQFLTYMALEERLAQAMETALAHLESLAVDVEVANPPASKESIDGLPETLVLEDHTAIGQEQCCPICCSEYIKDDIATELPCHHFFHKPCVSIWLQKSGTCPVCRRHFPPAVIEASAAPSSEPDPDAPPSNDSIAEAP
  growth of MCF-7 cells treated for 48 h with go-onERK-Flag against scrambled-Flag (cell counts): ~2 fold
